What was measured:
[1] = biological target: Met-Asp-human growth hormone (human) (UniProt P01241)
[2] = biological target: Met-Arg-Human Proinsulin Analog (B28 Lys, B29 Pro) (human) (UniProt P01308)

human growth hormone (hGH) conversion yield (reverse phase chromatography) [1]: 37% | extent of conversion of MR-KPB-hPI to KPB-hPI (reverse phase HPLC) [2]: 98%
Substance: bovine dipeptidylaminopeptidase 1 (enzyme)

— patent US6027911
